For assay [1], the target named is mitochondrial transcription factor B2 (TFB2M) protein (human) (UniProt Q9H5Q4). Briefly: in situ proximity ligation assay (anti-TFAM sc-376672 and anti-TFB2M 13676), fixed PBMCs from healthy controls (n=20), mean.
Assay [2] has the same target. Kind of assay: in situ proximity ligation assay (anti-TFAM sc-376672 and anti-TFB2M 13676), fixed PBMCs from septic patients (n=10), mean.

Sequence of UniProt Q9H5Q4 (Q9H5Q4 44-396): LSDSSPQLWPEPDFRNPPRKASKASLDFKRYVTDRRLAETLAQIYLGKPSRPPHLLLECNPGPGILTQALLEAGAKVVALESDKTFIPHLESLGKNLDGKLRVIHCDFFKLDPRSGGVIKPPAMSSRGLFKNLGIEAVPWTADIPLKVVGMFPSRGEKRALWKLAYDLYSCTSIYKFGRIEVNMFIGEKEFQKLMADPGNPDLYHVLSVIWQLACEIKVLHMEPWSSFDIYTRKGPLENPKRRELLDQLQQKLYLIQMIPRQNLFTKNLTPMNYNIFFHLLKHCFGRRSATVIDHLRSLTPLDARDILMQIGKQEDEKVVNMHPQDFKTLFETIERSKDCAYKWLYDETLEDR

For the substance “mature mitochondrial transcription factor A (TFAM) protein (from UniProt Q00059 43-246)”, the PLA signals per cell (signals per cell) amounted to 4.5 in assay [1] and 1.2 in assay [2].

(Values after US20250271449A1.)
